In patent US20090280138A1 (OXFORD BIOMEDICA UK, published 2009):

Legend:
Assay in all cases: iTopia iScore
[1] = molecular target: T1, MHC class I molecule B*0702 (biotin (bound to streptavidin-coated plate))
T1 construct: also called B7; HLA-B7
Procedure: (§1) The 9 mers were tested for Peptide Binding, Off Rate and Affinity using iTopia Epitope Discovery System in accordance with the manufacturer's instructions. Briefly, 96 well microtitre plates coated with MHC molecules representing different MHC alleles are used to identify candidate peptides. […] Determinations are performed in duplicate using an ELISA plate reader and included allele specific positive controls.
(§2) Finally, multiparametric analysis is performed on the results from these assays and an iScore is generated. The iScore represents a measure of the overall quality of peptide-MHC binding, enabling candidate peptides to be ranked in order of binding quality and allowing rational prioritisation of peptides for functional cellular follow-up studies.

[2] = molecular target: T2, MHC class I molecule A*0201 (biotin (bound to streptavidin-coated plate))
T2 construct: also called A2; HLA-A2
Procedure: as §1, §2

[3] = molecular target: T3, MHC class I molecule A*0101 (biotin (bound to streptavidin-coated plate))
T3 construct: also called A1; HLA-A1
Procedure: as §1, §2

[4] = molecular target: T4, MHC class I molecule A*0301 (biotin (bound to streptavidin-coated plate))
T4 construct: also called A3; HLA-A3
Procedure: as §1, §2

| Binder | iScore [1] | iScore [2] | iScore [3] | iScore [4] |
| --- | --- | --- | --- | --- |
| ASAVSAQPP [5T4 9-mer peptide 25 ASAVSAQPP] | 0 | 0 | 0 | 0 |
| ELAALNLSG [5T4 9-mer peptide 60 ELAALNLSG] | 0 | 0.075 | 0 | 0 |
| LCECSEAAR [5T4 9-mer peptide 33 LCECSEAAR] | 0 | 0 | 0 | 0 |
| LPAYVRNLF [5T4 9-mer peptide 45 LPAYVRNLF] | 0.389 | 0 | 0 | 0 |
| SEAARTVKC [5T4 9-mer peptide 35 SEAARTVKC] | 0 | 0 | 0 | 0 |
| AALNLSGSR [5T4 9-mer peptide 61 AALNLSGSR] | 0 | 0 | 0 | 0 |
| FLASAVSAQ [5T4 9-mer peptide 24 FLASAVSAQ] | 0 | 0.134 | 0 | 0 |
| QCPALCECS [5T4 9-mer peptide 31 QCPALCECS] | 0 | 0 | 0 | 0 |
| RTVKCVNRN [5T4 9-mer peptide 37 RTVKCVNRN] | 0 | 0 | 0 | 0 |
| VLPAGAFAR [5T4 9-mer peptide 53 VLPAGAFAR] | 0 | 0.081 | 0 | 0.027 |
| GAFARRPPL [5T4 9-mer peptide 55 GAFARRPPL] | 0.359 | 0.222 | 0 | 0 |
| SSAPFLASA [5T4 9-mer peptide 22 SSAPFLASA] | 0 | 0.389 | 0 | 0 |
| PAGAFARRP [5T4 9-mer peptide 54 PAGAFARRP] | 0 | 0 | 0 | 0 |
| PLPDQCPAL [5T4 9-mer peptide 29 PLPDQCPAL] | 0 | 0.88 | 0 | 0 |
| FARRPPLAE [5T4 9-mer peptide 56 FARRPPLAE] | 0 | 0.042 | 0 | 0 |
| SAQPPLPDQ [5T4 9-mer peptide 27 SAQPPLPDQ] | 0 | 0 | 0 | 0 |
| ECSEAARTV [5T4 9-mer peptide 34 ECSEAARTV] | 0 | 0 | 0 | 0 |
| AYVRNLFLT [5T4 9-mer peptide 46 AYVRNLFLT] | 0 | 0.18 | 0 | 0 |
| AVSAQPPLP [5T4 9-mer peptide 26 AVSAQPPLP] | 0 | 0.062 | 0 | 0 |
| VPTDLPAYV [5T4 9-mer peptide 43 VPTDLPAYV] | 0 | 0.059 | 0.098 | 0 |
| NQLAVLPAG [5T4 9-mer peptide 51 NQLAVLPAG] | 0 | 0.22 | 0 | 0 |
| PPLAELAAL [5T4 9-mer peptide 58 PPLAELAAL] | 0.145 | 0.075 | 0 | 0 |
| VRNLFLTGN [5T4 9-mer peptide 47 VRNLFLTGN] | 0 | 0 | 0 | 0 |

| Binder | iScore [1] | iScore [2] | iScore [3] | iScore [4] |
| --- | --- | --- | --- | --- |
| VKCVNRNLT [5T4 9-mer peptide 38 VKCVNRNLT] | 0 | 0 | 0 | 0 |
| NLFLTGNQL [5T4 9-mer peptide 48 NLFLTGNQL] | 0 | 0.107 | 0 | 0 |
| LSGSRLDEV [5T4 9-mer peptide 63 LSGSRLDEV] | 0.107 | 0.075 | 0 | 0 |
| RRPPLAELA [5T4 9-mer peptide 57 RRPPLAELA] | 0 | 0 | 0 | 0 |
| QPPLPDQCP [5T4 9-mer peptide 28 QPPLPDQCP] | 0 | 0 | 0 | 0 |
| TEVPTDLPA [5T4 9-mer peptide 42 TEVPTDLPA] | 0 | 0 | 0 | 0 |
| RLDEVRAGA [5T4 9-mer peptide 65 RLDEVRAGA] | 0.032 | 0.422 | 0 | 0.057 |
| TDLPAYVRN [5T4 9-mer peptide 44 TDLPAYVRN] | 0 | 0 | 0 | 0 |
| NLTEVPTDL [5T4 9-mer peptide 41 NLTEVPTDL] | 0 | 0.253 | 0 | 0 |
| VRAGAFEHL [5T4 9-mer peptide 67 VRAGAFEHL] | 0.085 | 0 | 0 | 0 |
| LNLSGSRLD [5T4 9-mer peptide 62 LNLSGSRLD] | 0 | 0 | 0 | 0 |
| APFLASAVS [5T4 9-mer peptide 23 APFLASAVS] | 0.176 | 0.041 | 0 | 0 |
| AARTVKCVN [5T4 9-mer peptide 36 AARTVKCVN] | 0.059 | 0.115 | 0 | 0 |
| FLTGNQLAV [5T4 9-mer peptide 49 FLTGNQLAV] | 0 | 0.791 | 0 | 0 |
| NRNLTEVPT [5T4 9-mer peptide 40 NRNLTEVPT] | 0 | 0 | 0 | 0 |
| CVNRNLTEV [5T4 9-mer peptide 39 CVNRNLTEV] | 0.093 | 0.05 | 0 | 0 |
| PALCECSEA [5T4 9-mer peptide 32 PALCECSEA] | 0 | 0.082 | 0 | 0 |
| DEVRAGAFE [5T4 9-mer peptide 66 DEVRAGAFE] | 0 | 0 | 0 | 0 |
| GSRLDEVRA [5T4 9-mer peptide 64 GSRLDEVRA] | 0 | 0.13 | 0 | 0 |
| TGNQLAVLP [5T4 9-mer peptide 50 TGNQLAVLP] | 0 | 0.044 | 0 | 0 |
| LAVLPAGAF [5T4 9-mer peptide 52 LAVLPAGAF] | 0.049 | 0.074 | 0 | 0 |
| PDQCPALCE [5T4 9-mer peptide 30 PDQCPALCE] | 0 | 0 | 0 | 0 |
| LAELAALNL [5T4 9-mer peptide 59 LAELAALNL] | 0.074 | 0.72 | 0 | 0 |
